Test: yeast display, Sf9 membrane polyspecificity reagent, FACS + sequencing; frameworks hold sequencing errors
In short: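 A nanobody's polyreactivity label depends on the gate it was sorted from. Yeast display cells were stained with 10% biotinylated, detergent-solubilized Sf9 membrane reagent for 1 hour at 4 °C, enriched on streptavidin microbeads and sorted by FACS. The low and high (top ~1%) gates were set on anti-HA fluorescence for expression and streptavidin fluorescence for reagent binding.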

Sequence	polyreactivity (PSR sort gate)
QVQLVESGGGLVQAGGSLRLICAASGFTFRYYAMGWYRQAPGTERELVAAISAGGGSTYYADSVKGRFTISRDNAKNTVYLQMNSLKPEETAVYYCAAAGARPGYDYWGQGTLVTVSS	high polyreactivity
QVQLVESGGGLVQAGGSLRLICAASGFTFSTNAMGWYRQAPGKERELVAAITKSGGRTYYADSVKGRFTISRDNAKNTVYLQMNSLTPEDTAVYYCAAEVDRKGFYWYYWGQGTQVTVSS	high polyreactivity
QVQLVESGGGLVQAGGSLRLICAASGFTFTGNAMGWYRQAPGKERELVAAITRGGSTKYADSVKGRITISRDNAMHTVYLQMNSLKPEDTAVYYCAAGVRYYRYYYWGQGTQVTVSS	high polyreactivity
QVQLVESGGGLVQAGGSLRLICAASGFTFYENAMGWYRQAPGKERELVATISYSGGTTYADSVKGRFTISRDNAKNTVFLQMISLKPEDTAVYYCAADKDGYTYEFDYWGQGTQVTVSS	low polyreactivity
QVQLVESGGGLVQAGGSLRLICAASGFTFYRYAMGWYRQAPGKERELVASITRSGGSTSYADSVKGRFTISRDNAKNSVYLQMNRLKPEDTAVFYCAAVTTQYLFSVPYYYWGQGTQVTVSS	high polyreactivity
QVQLVESGGGLVQAGGSLRLICAASGGTFQSNAMGWYRQAPGKERELVASITSRGSSTYYADSVKGRFTISRDNAKNTVYLLMNSLKPEDTAVYYCAKGRSWQIYYKGGIKGGYWGQGTQVTVSS	low polyreactivity
QVQLVESGGGLVQAGGSLRLICAASGGTFYAYAMGWYRQAPGKERELVAAITRSGGRTYYADSVKGRFTISRDNAKNTVSLQMNSLKPEDTAVYYCAADPHHYSGLDYWGQGTQVTVSS	low polyreactivity
QVQLVESGGGLVQAGGSLRLICAASGGTFYINTMGWYRQAPGKERELVATITIVVSTKYADSVKGRFTISRDNAKNTVYLQMNSLKPEDTAVYYCAKDDVYRDSYLVFDGEMDYWGQGTQVTVSS	low polyreactivity
QVQLVESGGGLVQAGGSLRLICAASGGTFYPYTMGGYRQAPGKERELVAAISRRSGRTYYADSVKGRFTISRDNAKNTVYLQMNSLKPEDTAVYYCNADGYTRAFDYWGQGTQVTVSS	high polyreactivity
QVQLVESGGGLVQAGGSLRLICAASGIIFATYAMGWYRQAPGKERELVAVISNDGSTHYADSVKGRFTISRDNAKNTVYLQMNSLKPEDTAVYYCAARYPYDWRHDYWGQGTQVTVSS	low polyreactivity
QVQLVESGGGLVQAGGSLRLICAASGIIFGYYAMGWYRQAPGKERELVAAITSGASTDYADSVKGRFTISRDNAKNTFYLQMNSLKPEDTAVFFCNADTSASTYTFPFDYCGQGTQVTVSS	low polyreactivity
QVQLVESGGGLVQAGGSLRLICAASGITFDDYDMGWYRQAPGKEREFVSAISFSGSSTYYADSVKGRFTISRDKAKNTVYLQMNSLKPEDTAVYYCNADYVYSGGRYFGKDYWFDYWGQGTQVTVSS	low polyreactivity
QVQLVESGGGLVQAGGSLRLICAASGITFDYYVMGWSRQAPGKERELVAVITWSGSTYYADSVKGRFTISRDNAKNTVYLQMNSLKPEDTAVYYCAADWVTYYDFEFYYWGQGTQVTVSS	high polyreactivity
QVQLVESGGGLVQAGGSLRLICAASGITFVYYAMGWYRQAPGKERELVAAISKNSGSTYYADSVKGRFTISRDNAKNTVYLQKNSLNPEDTAVYYCAAEEGYPWVRYNYWGQGTQVTVSS	high polyreactivity
QVQLVESGGGLVQAGGSLRLICAASGITFYVYTMGWYRQAPGKERELVAAINGSGGSTNYADSVKGRFTISRDNAKNTVYLQMNSLKPEDTAVYYCAADWSLRLYDYWGQGTQVTVSS	low polyreactivity
QVQLVESGGGLVQAGGSLRLICAASGITLDGNAMGWYRQAPGKERELVAAITSGGGTNYADSVKGRFTISRDNAKNTVYLQMNSLKPEDTAVYYCAAEGYVGYYDYDYWGQGTQVTVSS	low polyreactivity
QVQLVESGGGLVQAGGSLRLICAASGKTFSDYAMGWYRQAPGKERELVAAISSSGVRTYYADSVKGRFTISRDNAKNTVYLQMNSLKPEDTAVDDCNAGYVRRYYPASGYGYWGQGTHVTVSS	high polyreactivity
QVQLVESGGGLVQAGGSLRLICAASGLIFDYYAMGWYRQSPGKDRELVAAITSSSGITYYADSVKGRFTISRDNAKNTVSLQMNSLKPEDTAVYYCNADTRTTTRRFNPYDYWGQGTQVTVSS	low polyreactivity
QVQLVESGGGLVQAGGSLRLICAASGLIFKVYAMGWYRQAPGKERELVAAITYSGGSTDYADSVKGRFTISRDNAKNTVYLQMNSLKPEDTAVYYCNVEKVGHVNSYGYDYWGQGTQVTVSS	low polyreactivity
QVQLVESGGGLVQAGGSLRLICAASGLIFTHNTMGWYRQAPGKERELVAAITTSGGTTYYADSVKGRFTISRDNAKNTVYLQMNSLKPEDTAFYYCAARAPWPKWGYYYWGQGTQVTVSS	high polyreactivity
QVQLVESGGGLVQAGGSLRLICAASGLIFVRYAMGWYRQAPGKERELVATITWSGGTTYADSVKGRFTISRDNAKNTVYLQMNSLNPEDTAVYYCAVEWPAWTDSDYPVGGHAFGYWGQGTQVTVSS	low polyreactivity
QVQLVESGGGLVQAGGSLRLICAASGLIFWRNAMGWYRQAPGKERELVAAISRTGGNTYYADSVKGRFTISRDNAKNTVYLQMNSLKPEDTAVYYCAKDVGKGYGAYPLDYWGQGTQVTVSS	low polyreactivity
QVQLVESGGGLVQAGGSLRLICAASGLIFYDNMGWYRQAPGKERELVAAISSSGGSTSYADSVKGRFTISRDNAKNTVYLQMNSLKPEDTAVYYCAADSYPAYLGFVGFDYWGQGTQVTVSS	low polyreactivity
QVQLVESGGGLVQAGGSLRLICAASGLTFASYAMGWYRQAPGKERELVAAISSSGRTYYADSVKGRFTISRDNAKNTVYLQMNSLKPEDTAVYYCATRGLSRYYDYYYWGQGTQVTVSS	high polyreactivity
QVQLVESGGGLVQAGGSLRLICAASGLTFFLYPMGWYRPAPGKERELVAAISSRGGSTYYADSVKGRFTISRDKAKNTVYLQMYSLKPEDTAVYYCADATKGDEDYWGQGTQVTVSS	high polyreactivity
QVQLVESGGGLVQAGGSLRLICAASGLTFGDYTMGWYRQAPGKERELVAAISTSGGSTYYADSVKGRFTISRDNAKKTVYLLMNSLKPEDTAVYYCNARRTHTRSHYYYWGQGTQVTVSS	high polyreactivity
QVQLVESGGGLVQAGGSLRLICAASGNIFAYYAMGWYRQAPGKERELVAGISRRAGNTYYADSVTGRFTISRDNAKNTVYLHMNSLKREDTAFYYCNKYTKRSGMDYWGQGTQVTVSS	high polyreactivity
QVQLVESGGGLVQAGGSLRLICAASGNIFDLYAMGWYRQAPGKERELVAAITRSSSRTYYADSVKGRFTISRDNAKNTVSLQMNSLKPEDTAVYYCRAKQVNRVDYWGQGTQVTVSS	high polyreactivity
QVQLVESGGGLVQAGGSLRLICAASGNIFSFNDMGWSRPAPGKERELVASITSGGRTNYADSVMGRFTISRDNAKNTVYLQMNSLKPEDTAVYYCAADYSVPTSQAYDYWGQGTQVTVSS	low polyreactivity
QVQLVESGGGLVQAGGSLRLICAASGNIFYRYAMGWYRQAPGKERELVAAISGNSGNTYYADSVKGRFTISRDNAKNTVYLQMNSLKPEDTAVYYCNARVVVRRDYWGQGTQVTVSS	high polyreactivity

Reference: the nanobody polyreactivity screen of Harvey et al. (2022)
